The target in experiment [1] is T1, circulating APOL1 in normal human serum (human, UniProt O14791 28-398).
T1 sequence (looked up): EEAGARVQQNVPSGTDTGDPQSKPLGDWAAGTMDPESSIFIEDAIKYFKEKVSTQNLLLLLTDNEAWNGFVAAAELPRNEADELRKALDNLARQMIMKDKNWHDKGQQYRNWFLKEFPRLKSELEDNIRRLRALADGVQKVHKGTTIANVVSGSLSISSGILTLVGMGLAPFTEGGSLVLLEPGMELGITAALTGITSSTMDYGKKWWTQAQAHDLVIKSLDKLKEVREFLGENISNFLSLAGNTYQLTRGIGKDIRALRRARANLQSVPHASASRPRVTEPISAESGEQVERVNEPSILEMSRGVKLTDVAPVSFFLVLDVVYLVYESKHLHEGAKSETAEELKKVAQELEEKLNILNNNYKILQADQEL
Kind of experiment: cell-based or functional assay.

Experiment [2] has as its target T2, APOL6-myc-FLAG (human, UniProt Q9BWW8 1-343).
T2 construct: whole, on cells; In fixed, permeabilized transfected COS cells; untagged APOL6 in the western blots; not shown: C-terminal myc-FLAG tag
T2 sequence (looked up): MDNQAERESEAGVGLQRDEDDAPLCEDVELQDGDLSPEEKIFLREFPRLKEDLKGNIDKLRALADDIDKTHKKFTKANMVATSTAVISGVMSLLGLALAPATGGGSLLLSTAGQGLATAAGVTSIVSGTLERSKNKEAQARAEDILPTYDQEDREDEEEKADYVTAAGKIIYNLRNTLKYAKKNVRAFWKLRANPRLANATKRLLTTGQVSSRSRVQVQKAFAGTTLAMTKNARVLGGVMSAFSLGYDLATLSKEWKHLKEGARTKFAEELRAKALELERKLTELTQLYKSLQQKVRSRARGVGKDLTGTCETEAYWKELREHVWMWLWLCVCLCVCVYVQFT
Kind of experiment: immunofluorescence on transfected COS cells; grade. The source says:
COS cells were transfected as in FIG. 31A except APOL1 and APOL2 were also C-terminally myc-FLAG tagged. Overlays of APOL with epitope tags: either mouse anti-FLAG-M2 or mouse anti-myc 9E10 for anti-APOL1 rabmabs; or rabbit anti-Myc 71D10 in conjunction with mouse anti-APOL1. Signals indicate the two antibodies overlap (i.e. anti-APOL1 cross-reacts with that APOL); signals (epitope tag only) indicate no cross-reactivity. Alexa647 anti-rabbit or mouse were used for the tags to rule out the possibility that any colocalization was a bleed-through artifact. Sparsely transfected areas were imaged to permit evaluation of background staining in adjacent untransfected cells—DAPI nuclear staining identifies both untransfected and transfected cell nuclei. […] Note that none of the antibodies cross-reacted with the more distantly related APOL6. *, APOL2-myc-FLAG is presumably misfolded, since it is not as cross-reactive as untagged APOL2 (compare FIG. 31A) with several antibodies. Commercial antibodies are Sigma HPA018885, Epitomics EPR2907 (2) (Epito) and Proteintech 11486-2-AP (Ptech).
Cells were plated on LabTekII (Nalge Nunc 154534) slides and fixed at 70-100% confluency. For mAb screening, cells were fixed/permeabilized for 5 min in −20° C. methanol (EMD MX0485-6). For all other experiments, cells were fixed in 3% paraformaldehyde in PBS (EMS 15710) for 20 mins at room temperature, quenched with 50 mM NH₄Cl in PBS for 10 mins, then permeabilized with 0.1% TX-100 in PBS for 4 mins or for 1h in saponin buffer [0.4% saponin (Sigma S7900), 1% bovine serum albumin (BSA; Sigma A2153), 2% fetal bovine serum (Seradigm) in PBS]. First antibodies (stored sterile at 4° C.) were applied for 1 h at room temperature, at 1 μg/ml for screening on transfected cells or at subsequently optimized concentrations for detecting endogenous APOL1. After 3×10 min washes in PBS (for Methanol or TX-100 protocols) or saponin buffer (saponin protocol), secondary antibodies were applied at 1.88 μg/ml for 1 h at room temperature, washed 3× and mounted under No. 1.5 coverslips in ProLong Gold with DAPI (4′,6-diamidino-2-phenylindole; Life Technologies P36931).

In experiment [3] the target is T3, untagged APOL1-G0, KIK variant, transiently expressed (COS cells) (human, UniProt O14791 29-398).
T3 construct: Origene SC109941 clone with E150K, M228I, R255K
T3 chain: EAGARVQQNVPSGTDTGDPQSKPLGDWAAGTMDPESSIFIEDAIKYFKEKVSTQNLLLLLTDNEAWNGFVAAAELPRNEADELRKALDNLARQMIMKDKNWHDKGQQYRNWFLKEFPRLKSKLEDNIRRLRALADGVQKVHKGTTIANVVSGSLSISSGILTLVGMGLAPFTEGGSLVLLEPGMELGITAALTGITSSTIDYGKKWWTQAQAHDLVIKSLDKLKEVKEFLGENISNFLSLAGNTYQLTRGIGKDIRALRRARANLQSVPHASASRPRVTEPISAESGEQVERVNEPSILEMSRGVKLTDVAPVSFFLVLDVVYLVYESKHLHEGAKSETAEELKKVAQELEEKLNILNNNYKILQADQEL
Kind of experiment: immunofluorescence on transfected COS cells, 1 µg/ml; grade.

In experiment [4] the target is T4, endogenous human APOL1 (wild-type immortalized podocytes; also JHH-1 cells, kidney and liver tissue) (human, UniProt O14791 28-398).
T4 construct: whole, on cells; Cell or tissue and permeabilization are told under assay; also called podocyte APOL1; endogenous APOL1
T4 sequence (looked up): T1 sequence (looked up)
Kind of experiment: summary of the Examples: podocyte flow cytometry. As to the method: Cells were harvested with 5 mM EDTA in PBS, washed once with growth media and twice with PBS. Approximately 0.5×10⁶/m1 of cells resuspended in PBS were incubated with anti-APOL1 antibodies for 1 h on ice. Following two PBS washes, 2 μg/ml of Alexa488 anti-mouse or anti-rabbit (Invitrogen A11029 and A21206, respectively) was used for 1 h on ice for detection. Cells were washed twice in PBS and resuspended in PBS with 1 μg/ml propidium iodide. Signals were read in a FACSCalibur3 (Becton Dickinson), with the exception of FIG. 8A and FIG. 14, which used a FACSCelesta, and data was analyzed using FlowJo v8.4.5. Mean fluorescence intensities were plotted in PRISM v7 after subtraction of secondary antibody alone background. For low pH experiments, cells were incubated with the antibodies in the presence of PBS pH 7.0 or PBS pH 5.5 for an hour on ice and detected with secondary antibodies at neutral pH.
A general note: A flow cytometer gives signals particle by particle.

Experiment [5] has as its target T1, circulating APOL1 in normal human serum. Nature of the experiment: summary of the Examples: trypanolysis blocking as proxy for serum APOL1. The procedure: The trypanolysis assay used herein to text specificity of antibodies for serum APOL1 is as follows. Trypanosoma brucei brucei were obtained from ATCC and cultured in HMI-9 media containing IMDM (Genentech), heat-inactivated (56° C. for 30 min) FBS (Seradigm IXL9/06807/GEN), 1% serum plus (Sigma 14008C), HMI-9 (Genentech) and 1% hypoxanthine (Genentech). Trypanosome lysis was performed by treating 1×10⁵ Trypanosomes with serial dilutions of NHS or recombinant APOL1 for 16 h in a total of 100 μl. Live cell read out was done by the Alamar Blue assay as per the manufacturer's protocol, (Thermo Fisher, DAL1100). Briefly 10 μl of Alamar Blue was added to each well, incubated at 37° C. for 4 h. Red fluorescence, indicating live trypanosomes, was measured on a SpectraMax® fluorimeter powered by SoftMAX® PRO with excitation at 530 nm and emission 590 nm. For the antibody blocking assay, 1% normal human serum was preincubated with 1-10 μg/ml of anti-APOL1 antibody or media at room temperature for 20 minutes followed by addition of trypanosomes. After 16 h, the Alamar Blue assay was performed as above and background values for media only were subtracted and % blocking calculated by normalizing to no antibody control.
Trypanosoma brucei brucei were obtained under MTA from ATCC and cultured in HMI-9 media containing IMDM (Genentech), heat-inactivated (56° C. for 30 min) FBS (Seradigm IXL9/06807/GEN), 1% serum plus (Sigma 14008C), HMI-9 (Genentech) and 1% hypoxanthine (Genentech). Trypanosome lysis was performed by treating 1×10⁵ Trypanosomes with serial dilutions of NHS or recombinant APOL1 for 16 h in a total of 100 μl. Live cell read out was done by the Alamar Blue assay as per the manufacturer's protocol (30) (Thermo Fisher, DAL1100). Briefly 10 μl of Alamar Blue was added to each well, incubated at 37° C. for 4 h. Red fluorescence, indicating live trypanosomes, was measured on a SpectraMax fluorimeter powered by SoftMAX PRO with excitation at 530 nm and emission 590 nm. For the antibody blocking assay, 1% normal human serum was preincubated with 1-10 μg/ml of anti-APOL1 antibody or media at room temperature for 20 mins followed by addition of trypanosomes.

The values below come from patent US20230071609A1 (Genentech, published 2023).

B1: antibody 3.1C7 (antibody)
heavy: EVQLQQSGTVLSRPGASVKMSCKASGYTMTSYWMHWIKQRPGQGLEWIGAIYPGKSDIKYNQKFKDKAKLTAVTATSTAYMEINSLTNEDSAVYYCTNSIPFVYWGQGTLITVSAASTKGPSVYPLAPVCGDTTGSSVTLGCLVKGYFPEPVTLTWNSGSLSSGVHTFPAVLQSDLYTLSSSVTVTSSTWPSQSITCNVAHPASSTKVDKKIEPRGPTIKPCPPCKCPAPNAAGGPSVFIFPPKIKDVLMISLSPIVTCVVVDVSEDDPDVQISWFVNNVEVHTAQTQTHREDYNSTLRVVSALPIQHQDWMSGKEFKCKVNNKDLGAPIERTISKPKGSVRAPQVYVLPPPEEEMTKKQVTLTCMVTDFMPEDIYVEWTNNGKTELNYKNTEPVLDSDGSYFMYSKLRVEKKNWVERNSYSCSVVHEGLHNHHTTKSFSRTPGK
light: DIVMTQSPSSLTVTAGEKVTMSCKSSQSLLNSENQKKYLTWFQQKPGQPPKLLIYWTSTRYSGIPDRFTGSGSGTVFTLTISSVQADDLAVYYCQNDYSYPLTFGGGTKLEIKRADAAPTVSIFPPSSEQLTSGGASVVCFLNNFYPKDINVKWKIDGSERQNGVLNSWTDQDSKDSTYSMSSTLTLTKDEYERHNSYTCEATHKTSTSPIVKSFNRNEC
notes: Mouse mAb, cloned as murine IgG2a LALAPG; also called SRA-ID antibody 3.1C7
For the molecule B1, in experiment [1], the “IC50 of blocking of serum APOL1-mediated trypanolysis (Alamar Blue)” value was found to be 1 nM. Moreover, the binding result in experiment [2] was “no binding (tested: 1 µg/ml)”; in experiment [3], “binds”.

B2: antibody 3.4G10 (antibody, V domains shown)
VH: DVQLQESGPDLVKPSQSLSLTCTVTGYSITSGESWHWIRHFPGNELEWMGFIHYSGSANYNPSLKSRISITRDTSKNQFFLQLLSVTTDDTATYYCARSVYNYDGAWFPYWGQGTLVTVSA
VL: QIVLTQSPVIMSASPGERVTLTCSASSSVSSSYLNWYQLKPGSSPKVWIYRTSNLASGVPARFSGSGSGTSYSLTISSMEAEDAASYFCHQWSAYPPTFGGGTKLEIKR
notes: Mouse mAb, cloned as murine IgG2a LALAPG
Take B2: the binding result in experiment [4] and in experiment [5] was “binds” throughout.

B3: rabbit monoclonal antibody 5.17H8 (antibody, V domains shown)
VH: QSLEESGGRLVTPGTPLTLTCTVSGIDLSSYAMGWVRQAPGKGLEWIGIISSSGSTHYASWAKGRFTISKTSTTVDLKITSPTTEDTATYFCARARAGSTYYTGYYFNLWGQGTLVTVSS
VL: AIEMTQTASPVSAAVGGTVTINCQASESIYSNLAWYQQKPGQRPKLLIYGASTLESGVPSRFKGSGSGTEYTLTISDLECDDAATYYCQSGYYGISAINNAFGGGTEVVVKG
notes: Rabbit mAb (Method #5), recombinant; also called rabmab 5.17H8
On to B3, for which the binding result in experiment [2] is reported as “no binding (tested: 1 µg/ml)”.

B4: antibody 4.2C4 (antibody, V domains shown)
VH: QVQLQQSGPELVKPGASVKMSCKASGYTFTDYVISWVKQRTGQGLEWIGEMFPGSGTTYYTEKFRGKATLTADKSSNTAYMQLSSLTSEDSAVYFCARGTTADYWGQGTTLTVSS
VL: ENVLTQSPAIMSASLGEKVTMSCRASSSVNYMYWYQQKSDASPKLWIYYTSNLAPGVPARFSGSGSGNSYSLTISSMEGEDAATYYCQQFTSSPYTFGGGTKLEIKR
notes: as for B2
Consider B4, for which the binding result in experiment [2] is on record as “no binding (tested: 1 µg/ml)”; in experiment [3] it was “binds”.

B5: antibody 3.2C11 (antibody, V domains shown)
VH: QVQLQQSGAELVRPGASVKLSCKALGYTFTDYEIHWVKQTPVHGLEWIGGIHPGNGGTAYNPKFKGKATLTADTSSSTASMELSSLTSEDSAVYYCTDWVDYWGQGTTLTVSS
VL: DVVVTQTPLSLPVNFGDQVSISCRSSQSLVNRHGITYLSWYLHKPGQSPQLLIYEISNRFSGVPDRFSGSGSGTDFTLKISTIKPEDLGMYYCFQGTHQPFTFGGGTKLEIKR
notes: as for B2
As for B5, the binding result in experiment [5] is “binds”.
